Positions of bridges follow the written chain, without caps; N, C: chain ends. No end group written: not given here. *: point of attachment. Pent4ynoyl = C#CCCC(=O)*

Here are results for 15 substances from patent US20220401560A1, “PEPTIDE ENCAPSULATING FERRITIN” (Ajinomoto Co., Inc., priority 2019, published 2022).

Assay [1] concerns the target T1, ferritin (FTH) (Homo sapiens, UniProt P02794).
T1 construct: made in house; host or cells: Escherichia coli BL21 (DE3), plasmid pET20-FTH
Nature of the assay: Search for peptides capable of being encapsulated into ferritin by disassembly/reassembly process, LC-MS detection. The arrangement: key to encapsulation: “A” represents peptides with three times of confirmation of encapsulation.; “B” represents peptides with two times of confirmation of encapsulation or less.; “C” represents peptides without confirmation of encapsulation. The conditions noted are these: for MS peak of peptide derived from peptide encapsulating ferritin: FTH, disassembly/reassembly process performed; for encapsulation: encapsulation into ferritin (FTH), three trials. The procedure:
Peptides capable of being encapsulated into ferritin by disassembly/reassembly process were searched. In the disassembly/reassembly process, 1 mL of a 50 mM glycine hydrochloride buffer (pH 2.3) containing FTH at a final concentration of 5 mg/mL and the peptide at a final concentration of 0.5 mM, was left to stand at room temperature for 15 minutes. Next, 310 μL of a 1 M Tris hydrochloride buffer (pH 9.0) was added for neutralization, and left to stand at room temperature for 3 hours. After the standing, 1.2 mL of a 50 mM Tris hydrochloride buffer (pH 8.0) was added, and centrifuged (at 15,000 rpm for one minute). Thereafter, 2.5 mL of its supernatant was injected into a desalting column PD-10 (Sephadex G-25 filled product, GE Healthcare Inc.) equilibrated with a 50 mM Tris hydrochloride buffer (pH 8) for the elusion with 3.0 mL of a 50 mM Tris hydrochloride buffer (pH 8.0) to separate non-encapsulated peptides and ferritin. A whole amount (3.0 mL) of the resulting solution was concentrated to 0.1 mL by centrifugal ultrafiltration using Vivaspin 20-100K (GE Healthcare Inc.). The operation of adding 10 mL of a 50 mM Tris hydrochloride buffer to the concentrated solution and then concentrating was repeated twice to remove peptides that were not removed by PD-10 to obtain 0.1 mL of a sample solution. For the LC-MS analysis, 50 p1 of a 1 M glycine hydrochloride buffer (pH 2.3) was added to 50 μL of the sample solution and then the resulting solution was left to stand at room temperature for 15 minutes. To the solution, 900 μL of ethanol was added. Next, the resulting solution was stirred vigorously and then centrifuged (at 15,000 rpm for five minutes) for collection of the supernatant. The supernatant was analyzed using LCMS-2020 (Shimadzu Corporation) as LC-MS, Inertsil (Registered trademark) as a column, ODS-3, particle diameter of 2 μm and 2.1 mm×50 mm (GL science). Thereafter, 10 μL of the sample injected into the column was eluded at a flow rate of 0.2 mL/min for 10 minutes such that a mixing ratio of a solution A (0.1% formic acid/99.9% acetonitrile) and a solution B (50% water/50% acetonitrile) is from 95:5 to 95:5.
The encapsulation of the peptide into ferritin was studied by comparing in terms of the amount of the peptide detected by LC/MS between the sample prepared by encapsulating the peptide into ferritin at the disassembly/reassembly process and the sample prepared simply by mixing ferritin with the peptide. For example, ClAc-FHC was eluted at a retention time of 0.8 minute. […] However, the peak was not observed for the sample prepared by simply mixing the peptide with ferritin without performing the disassembly/reassembly process (FIG. 12B). FIG. 13 to FIG. 17 illustrate LC-MS results for FTH in which the peptide was encapsulated at the disassembly/reassembly process.

The target of assay [2] is T1, ferritin (FTH). The experiment in a line: Encapsulation of fluorescent dye-modified peptide into FTH, column chromatography with absorbance at 480 nm and LC-MS. The conditions noted are these: absorbance at 480 nm at elution position of 24-mer FTH; LC-MS. The method, then: Of a 50 mM glycine hydrochloride buffer (pH 2.3) that contains FTH (chemical formula weight: 509,421) at a final concentration of 5 mg/mL and the peptide at a final concentration of 0.5 mM, 0.5 mL was left to stand at room temperature for 15 minutes. Next, 50 μL of a 1 M Tris hydrochloride buffer (pH 9.0) was added for neutralization, and the resulting solution was left to stand at room temperature for 3 hours. After the standing, the resulting solution was centrifuged (at 15,000 rpm for one minute). Then, the supernatant was collected and the volume was increased up to 3 mL with a 10 mM Tris hydrochloride buffer (pH 8). The resulting solution was injected into the HiPrep 26/60 Sephacryl S-300 HR column (GE Healthcare Inc.) equilibrated with a 10 mM Tris-HCl buffer (pH 8.0) to separate and purify 24-mer FTH by size at a flow rate of 1.3 mL/minute. The purified ferritin was analyzed using a HiPrep 16/60 Sephacryl S-300 HR column (GE Healthcare Inc.) equilibrated with a 10 mM Tris-HCl buffer (pH 8.0) at a flow rate of 0.5 mL/minute and confirmed as the absorbance at 480 nm unobservable from FTH only, at the same position as that of a peak of FTH.
The solution containing the FTH was concentrated to 0.25 mL by centrifugal ultrafiltration using Vivaspin 20-100K (GE Healthcare Inc.). […] For the LC-MS analysis, 50 μL of a 1 M glycine hydrochloride buffer (pH 2.3) was added to 50 μL of the sample solution and then the resulting solution was left to stand at room temperature for 15 minutes. To the solution 900 μL of ethanol was added. Next, the resulting solution was stirred vigorously and then centrifuged (at 15,000 rpm for five minutes) to collect its supernatant. The supernatant was analyzed using LCMS-2020 (Shimadzu Corporation) as LC-MS, inertsil (Registered trademark) ODS-3 with a particle diameter of 2 μm and 2.1 mm×50 mm (GL science) as a column. Into the column, 10 μL of the sample was injected, and eluded at a flow rate of 0.2 mL/min for 10 minutes such that a mixing ratio of a solution A (0.1% formic acid/99.9% acetonitrile) and a solution B (50% water/50% acetonitrile) was from 95:5 to 95:5. The concentration of the contained protein was determined using a protein assay CBB solution (Nacalai Tesque, Inc.) in terms of bovine albumin as a standard. The concentration of the encapsulated peptide was determined based on the absorbance at 480 nm of the fluorescent dye FAM to which PKC-F is modified.
First, the construction of FTH encapsulating two kinds of fluorescent dye-modified peptides [5(6)—FAM-[…] (SEQ ID NO: 10), FAM-SV40, chemical formula weight 1,516, and 5(6)—FAM-[…] […] (SEQ ID NO: 11), FAN-Np, chemical formula weight 384] was attempted. 0.5 mL of a 50 mM glycine hydrochloride buffer (pH 2.3) that contains FTH (chemical formula weight 509,421) at a final concentration of 5 mg/mL and a peptide at a final concentration of 0.5 mM, was left to stand at room temperature for 15 minutes. Next, 50 μL of a 1 M Tris hydrochloride buffer (pH 9.0) was added for neutralization, and the resulting solution was left to stand at room temperature for 3 hours. […] The absorbance at […] was confirmed at the same elusion position as that of ferritin 24-mer, for ferritin that was used for the operation to encapsulate FAM-SV40 therein. […] Next, the peptide amount of FAM-SV40 encapsulated in purified ferritin was quantified based on the 480 nm absorbance and by CBB staining with use of ferritin-amount-albumin as a standard.

T1 sequence (P02794 whole entry): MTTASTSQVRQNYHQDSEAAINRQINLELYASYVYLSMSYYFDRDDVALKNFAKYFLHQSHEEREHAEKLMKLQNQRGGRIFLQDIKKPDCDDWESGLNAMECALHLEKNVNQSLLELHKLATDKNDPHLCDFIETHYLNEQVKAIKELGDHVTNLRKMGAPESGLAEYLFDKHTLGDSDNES

Take “VLWLKNR (SEQ ID NO: 14) (Synthetic amino acid sequence of the peptide FGF3-FP16 which is to be tested for encapsulation with ferritin) [linear peptide]”: in the assay with ferritin (FTH) [1], the “MS peak of peptide derived from peptide encapsulating ferritin” value (from here on “MS peak of peptide derived”) is on record as “presence” and the encapsulation result was “B (“B” represents peptides with two times of confirmation of encapsulation or less.)”.
Taken in the same sequence, the figures for “cyclo (AS (D-Pro) PTWI (Dab) (Orn) (D-Dab)(Dab)W(Dab)(Dab)) [Murepavadin, reference compound]” were “presence” and “A (“A” represents peptides with three times of confirmation of encapsulation.)”.
Taken in the same sequence, the figures for “GGKRPARGGKRPAR (SEQ ID NO: 19) (Synthetic amino acid sequence of the peptide NRP-1-2 which is to be tested for encapsulation with ferritin) [linear peptide]” were “presence” and “A (“A” represents peptides with three times of confirmation of encapsulation.)”.
On the same counts, the results for “SPRGDLAVLGHKY (SEQ ID NO: 18) (Synthetic amino acid sequence of the peptide avb6 which is to be tested for encapsulation with ferritin) [ανβ6, linear peptide]” are “presence” and “B (“B” represents peptides with two times of confirmation of encapsulation or less.)”.
Take “GIRLRGGIRLRGGIRLRG (SEQ ID NO: 22) (Synthetic amino acid sequence of the peptide GRP78-3 which is to be tested for encapsulation with ferritin) [linear peptide]”: in the assay with ferritin (FTH) [1], the “MS peak of peptide derived” value was “presence” and the encapsulation result was “B (“B” represents peptides with two times of confirmation of encapsulation or less.)”.
Regarding “cyclo(PPYVPLII) (SEQ ID NO: 15) (cyclic; Synthetic amino acid sequence of the peptide Hymenistatin I which is to be tested for encapsulation with ferritin) [cyclic peptide purchased from Sigma-Aldrich, reference compound]”, in the assay with ferritin (FTH) [1], the “MS peak of peptide derived” value is “presence” and the encapsulation entry is listed as “B (“B” represents peptides with two times of confirmation of encapsulation or less.)”.
On the same counts, the results for “FBP0032: cyclic peptide with disulfide bond, X is 4-pentynoic acid (Pent4ynoyl-GQKGCKKTPKLASLSCTGF; disulfide 5-16 (inferred))” are “presence” and “A (“A” represents peptides with three times of confirmation of encapsulation.)”.
On the same counts, the results for HTSD (SEQ ID NO: 12) [EGFR] are “presence” and “A (“A” represents peptides with three times of confirmation of encapsulation.)”.
On the same counts, the results for “Pakti-L1: cyclic peptide, cysteine sulfur bonded to acetyl group at N-terminus ({CH2CO}-YILVRNRLLRVDCG; thioether N-13)” are “presence” and “B (“B” represents peptides with two times of confirmation of encapsulation or less.)”.
As for EEEEEEEEEE (SEQ ID NO: 16) [Ex10], in the assay with ferritin (FTH) [1], the “MS peak of peptide derived” value is on record as “presence” and the encapsulation result is recorded as “A (“A” represents peptides with three times of confirmation of encapsulation.)”.
For “QMARIPKRLARHQMAR (SEQ ID NO: 21) (Synthetic amino acid sequence of the peptide NS which is to be tested for encapsulation with ferritin) [linear peptide]”, in the assay with ferritin (FTH) [1], the “MS peak of peptide derived” value was “presence” and the encapsulation entry is “A (“A” represents peptides with three times of confirmation of encapsulation.)”.
Turning to “5(6)-FAM-CGGKRPAAIK KAGQAKKKKG (SEQ ID NO: 11) ({5(6)‑FAM}-CGGKRPAAIKKAGQAKKKKG) [FAM-Np, fluorescent dye-modified peptide, linear]”, the encapsulation result with ferritin (FTH) [1] is recorded as “C”. The “encapsulation of peptide in FTH” value with ferritin (FTH) [2] is “not encapsulated”.
On to “FBP0033: cyclic peptide with disulfide bond, X is 4-pentynoic acid (Pent4ynoyl-GRPGCGPRKPRTPKKCGSH; disulfide 5-16 (inferred))”, for which, in the assay with ferritin (FTH) [1], the “MS peak of peptide derived” value is listed as “presence” and the encapsulation result is recorded as “A (“A” represents peptides with three times of confirmation of encapsulation.)”.
Turning to “cyclo(RGDFV) (SEQ ID NO: 13) [cyloRGDfV, reference compound]”, in the assay with ferritin (FTH) [1], the “MS peak of peptide derived” value is given as “presence” and the encapsulation result was “B (“B” represents peptides with two times of confirmation of encapsulation or less.)”.
For RRRRRRRRRR (SEQ ID NO: 17) [Rx10], the encapsulation entry in the assay with ferritin (FTH) [1] is “C”.
